B1: VPS39 (parent)
chain: LRLENNHCHIEESEHVLKKAHKYS
B2: TOR1AIP2 (parent)
chain: AGQEGEDTLRRRLLAPEAGSHPQQ

Variants of: B1
Assay: protein stability index of a GFP-peptide fusion (GPS, HEK-293T) (PSI 1-6); higher = more stable
Details: c terminus: a fixed tail appended
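Also: lentivirally expressed fusions sorted by FACS into six bins by GFP to DsRed ratio, PSI derived from sequencing read proportions per bin multiplied by bin number.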

Protein stability index, by site and new letter:
S24: T 2.07 | L 2.08 | V 1.83 | N 2.3 | W 2.24 | G 2.84 | D 2.25 | H 2.65 | Y 2.28 | F 2.37 | Q 1.92 | R 2.38 | P 1.74 | M 2.18 | I 2.04 | C 2.17 | A 1.29 | E 3.82 | K 2.09
K18: F 2.09 | M 2.12 | V 2.54 | N 2.6 | W 1.27 | P 1.85 | Q 2.42 | S 1.91 | R 2.21 | D 2.31 | L 1.88 | Y 2.39 | G 2.08 | T 1.87 | A 2.42 | H 2.17 | E 1.94 | C 2.02 | I 2.26
K19: N 2.39 | E 2.45 | F 1.98 | Q 2.51 | M 2.52 | S 2.1 | G 2.21 | V 2.4 | R 2.37 | I 2.01 | A 2.3 | Y 2.67 | W 1.34 | P 2.41 | L 1.52 | D 2.59 | C 2.24 | H 1.91 | T 2.2
V16: L 2.47 | R 2.48 | N 2.38 | D 3.13 | I 2.29 | K 2.49 | H 2.02 | Q 1.39 | C 2.1 | T 2.39 | M 1.97 | S 2.65 | W 1.49 | G 2.62 | A 3.01 | E 2.83 | F 3.08 | P 3.07 | Y 1.9
L17: R 2.8 | P 2.14 | C 2.65 | I 2.35 | K 2.27 | S 2.84 | N 2.48 | F 2.79 | W 1.72 | V 2.4 | E 2.88 | H 1.55 | T 3.14 | Q 2.4 | Y 2.55 | A 1.83 | G 2.84 | D 3.68 | M 1.56
H15: C 2.18 | Q 1.98 | W 2.09 | V 1.5 | K 2.74 | Y 2.41 | M 3.02 | S 2.64 | F 2.53 | A 2.87 | D 2.56 | T 2.71 | R 2.86 | L 2.1 | E 2.6 | I 2.41 | P 2.34 | G 1.89 | N 3.07
Y23: N 3.05 | A 2.76 | G 2.75 | S 2.77 | V 2.05 | M 2.17 | Q 2.45 | K 2.21 | I 3.14 | F 2.28 | R 2.25 | W 1.72 | E 3.12 | T 2.4 | D 2.15 | H 3.13 | L 2.7 | C 2.25 | P 2.56
H21: G 2.5 | V 3.04 | P 1.97 | E 2.78 | C 2.63 | A 3.18 | R 2 | N 2.68 | T 2.27 | W 2.12 | M 1.81 | Q 2.62 | K 2.4 | L 1.9 | S 2.29 | Y 2.25 | D 2.73 | F 2.52 | I 1.38
K22: P 2.79 | D 3.15 | C 2.02 | T 3.65 | S 2.51 | Y 2.55 | A 2.48 | F 1.84 | E 2.4 | G 2.96 | M 1.62 | L 1.99 | W 1.84 | H 2.58 | R 2.34 | I 1.65 | V 2.57 | N 2.44 | Q 2.12
E14: V 2.9 | S 2.42 | R 2.06 | W 2.67 | Y 1.88 | T 1.78 | Q 2.1
A20: K 2.13 | Q 1.45 | L 1.71 | S 2.19 | F 2.24 | R 2.11 | V 2.52 | G 2.73 | N 2.38 | C 2.04 | M 1.98 | P 2.23 | I 1.61 | T 2.43 | W 2.25 | D 2.73 | H 2.3 | Y 1.92 | E 3.06

Variants of: B2
Assay: as above
Details: c terminus: a fixed tail appended

Protein stability index, by site and new letter:
P22: Q 2.34 | D 2.6 | T 1.87 | I 2.56 | W 1.94 | R 2.04
P16: M 4.81 | R 4.7 | T 4.45
S20: P 2.53 | Q 2.35 | R 2.28 | E 2.91 | K 1.97 | L 2.09 | F 1.73
Q24: H 1.7 | W 2.17 | C 1.85 | L 1.79 | R 2.05
T8: I 2.17 | G 2.93
A1: Y 2.26 | V 3.31 | E 4.54 | P 4.86 | H 3.53 | W 3.19 | R 2.29
L13: M 2.22 | D 4.91 | K 5.21 | I 1.82 | T 5.03 | A 3.81
G2: N 3.23 | K 3.32 | D 5.64 | H 3.58
H21: F 2.02 | V 2.1
G19: K 1.86 | R 2.49 | I 2.54 | P 2.69 | F 1.86 | H 2.22 | L 1.72 | V 2.37 | E 2.15
R10: Q 5.08 | H 5.31 | D 5.38 | C 5.64 | Y 4.53
E6: P 2.88 | W 2.63 | K 1.95 | S 2.59 | T 2.08 | N 3.08 | D 2.79 | A 2.25
R11: L 2.85 | H 2.4 | K 2.81 | G 5.29 | F 2.02 | D 5.21 | W 2.12 | N 4.6 | E 4.6
Q3: T 2.47 | F 2.05 | S 2.31 | R 1.09 | N 1.82 | V 2.27 | Y 1.37
L14: A 5.73 | T 5.58 | V 5.37 | K 5.51 | Y 4.5 | F 4.25 | P 5.93 | S 5.63 | M 4.6
Q23: N 2.17 | S 1.85 | T 1.61 | R 2.54 | H 2.01
E4: T 2.15 | W 2.35
L9: D 4.17 | M 3.69 | G 4.89 | K 3.87 | Y 3.67 | I 2.33 | E 4.58 | Q 4.56 | F 3.61
D7: N 1.97 | K 2.57 | V 1.76 | F 2.47 | G 2.12 | I 1.76
A18: D 3.62 | T 3.11 | G 3.92 | I 1.9
E17: G 3.5 | L 2.13 | Q 2.63 | S 4.34 | T 4.53
G5: K 2.46 | F 1.83 | S 2.03 | Y 1.84 | N 3.27 | D 3.43 | I 2.72 | H 2.08 | T 2.72 | A 2.44 | M 1.97
A15: N 4.55 | Y 4.12 | D 5.39 | P 5.46 | H 5.18 | W 4.49
